Measurements as given in paper PMC8919572.

Tests used:
[1] = molecular target: Dual Signaling Protein 107 (DSP107) (human) (UniProt P78324); assay: SEC-MALS; purified DSP107 in solution
[2] = molecular target: cynomolgus 4-1BB (cynomolgus); assay: SPR; orientation and conditions not given (Table S2, supplementary methods)
[3] = molecular target: cynomolgus CD47 (cynomolgus); assay: as above
[4] = molecular target: human 4-1BB (surface plasmon resonance) (human) (UniProt Q07011); assay: as above
Chain of human 4-1BB (surface plasmon resonance) (human) (Q07011 24-255): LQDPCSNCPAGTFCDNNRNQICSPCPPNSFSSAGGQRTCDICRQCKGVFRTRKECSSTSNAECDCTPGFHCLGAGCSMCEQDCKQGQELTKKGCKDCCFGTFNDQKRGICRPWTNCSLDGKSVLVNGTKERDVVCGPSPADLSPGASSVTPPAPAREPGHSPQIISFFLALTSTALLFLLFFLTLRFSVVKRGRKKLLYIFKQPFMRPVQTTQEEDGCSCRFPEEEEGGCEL

[5] = molecular target: human CD47 (surface plasmon resonance) (human) (UniProt Q08722); assay: as above
Chain of human CD47 (surface plasmon resonance) (human) (Q08722 19-323): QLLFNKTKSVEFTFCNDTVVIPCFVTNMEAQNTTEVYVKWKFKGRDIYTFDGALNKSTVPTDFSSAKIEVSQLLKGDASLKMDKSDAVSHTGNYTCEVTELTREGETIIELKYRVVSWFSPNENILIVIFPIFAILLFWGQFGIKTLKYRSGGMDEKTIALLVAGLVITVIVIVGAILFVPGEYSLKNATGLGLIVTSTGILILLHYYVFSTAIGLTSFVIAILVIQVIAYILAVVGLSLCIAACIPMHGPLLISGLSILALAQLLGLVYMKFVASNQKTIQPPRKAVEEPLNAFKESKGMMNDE

[6] = molecular target: human CD47:Fc protein (human) (UniProt Q08722); assay: ELISA; dual-binding ELISA: human CD47:Fc as capture, DSP107 titrated, human biotinylated-4-1BB as detector; three separately produced batches of DSP107
[7] = molecular target: 4-1BB on HT1080.4-1BB cells (UniProt Q07011); assay: cell doublet formation by flow cytometry; mixed CFSE stained CHO.CD47 and CytoLightRed stained HT1080.4-1BB cells with 5 μg/ml DSP107; doublets as double-positive events; blocking with CD47 mAb or soluble 4-1BBL
Chain of 4-1BB on HT1080.4-1BB cells (Q07011 24-255): as the sequence (Q07011 24-255) above

[8] = molecular target: human CD47 expressed on CHO-K1 cells (human) (UniProt Q08722); assay: as above
Chain of human CD47 expressed on CHO-K1 cells (human) (Q08722 19-323): as the sequence (Q08722 19-323) above

Dual Signaling Protein 107 (DSP107) (from UniProt P78324 31-373; P41273 50-254)
stoichiometry N [1]: 3
Kd [2]: 0.34 nM
Kd [3]: 1.75 nM
Kd [4]: 0.7 nM
Kd [5]: 1.17 nM
EC50 [6]: 0.94 nM
percent doublets of CHO-K1.CD47 and HT1080.4-1BB cells [7]: 25%
percent doublets of CHO-K1.CD47 and HT1080.4-1BB cells [8]: 25%
